From patent US8975259B2, “Compositions and methods for inhibiting G protein signaling” (University of Rochester, priority 2007, dated 2015)
Read-outs that look alike come from different tables or passages of the source. Blank lines part the entries; values can stand above or below the compound they belong to.

Key:
[1] = molecular target: Gβ1γ2 (UniProt P54311+P63212); assay: Competition phage ELISA: inhibition of SIGK-phage binding to immobilized biotinylated Gβ1γ2; set-up: made in house; host or cells: Sf9 insect cells (baculovirus; co-expressed with BirA and (His)6-Gαi1, from which βγ was eluted); species or system rat; conditions: for binding to the G protein β subunit: result in words
Procedure: Phage ELISA assays used to assess peptide binding to wild-type and mutant b-βγ were performed according to standard methods (Smrcka and Scott (2002) Methods Enzymol. 344:557-76). Briefly, 1 μg streptavidin was immobilized in the well of a […] overnight at 4° C. The wells were blocked with 100 μL of 2% bovine serum albumin (BSA) in Tris-buffered saline (TBS) for 1 hour at 4° C. followed by three washes of IX TBS/0.5% TWEEN®. […] The wells were washed, followed by the addition of IxIO^6 to IxIO^10 phage particles and incubated at 4° C. for 3 hours. The wells were then washed six times with TBS/0.5% TWEEN® followed by addition of 40 μL of 1:5000 dilution of anti-M13 antibody (Pharmacia, Uppsala, Sweden) and incubated at room temperature for 1 hour. The wells were washed, followed by the addition of 40 μL of (2,2′-Azino-bis (3-ethylbenzthiazoline)-6-sulfonic acid (ABTS) and the colorimetric reaction was monitored at 405 nm. Nonspecific binding was subtracted for each reading.
A phage ELISA assay was used to determine whether small molecules identified in the computational screen could interact with the Gβy protein interaction surface. […] The screen was based on a reduction in the optical density (OD) of wells containing Gβγ subunits and phage. […] Three background wells contained no βy subunits.
As disclosed herein, biotinylated Gβy subunits were immobilized on the surface of a 96-well plate coated with streptavidin, phage displaying Gβγ-binding peptides were subsequently added and binding in the presence and absence of test compounds detected with an anti-phage antibody.
The phage ELISA assay was used to rapidly screen the ability of compounds to bind to the protein interaction “hot spot” based on the method of Scott et. al (Scott et al., 2001). This assay is performed in the presence of detergent (0.5% Tween) to eliminate non-specific compound aggregation artifacts.
Compounds/DMSO and 0.1×10^10 phage were added simultaneously and subsequently incubated for 1 h at room temperature. Plates were then washed with 1× Tris-buffered saline/0.5% Tween 20 and incubated with anti-M13, HRP-conjugated antibody (Amersham, Chalfont St. Giles, Buckinghamshire, UK). Phage binding was determined by monitoring A405 upon addition of 2,2′-azino-bis(3-ethylbenzothiazoline-6-sulfonic acid) (Sigma Aldrich).

[2] = molecular target: T1, Gβ1γ2 (Gβ1 mutants) (UniProt P54311+P63212, D186A); assay: Phage ELISA: binding of peptide-displaying phage to wild-type or alanine-substituted b-βγ; set-up: species or system rat; conditions: Gβ1 Asp186Ala; mean ± SD
T1 construct: made in house; host or cells: Sf9 insect cells (baculovirus), partially purified via (His)6-Gαi1 on Ni-NTA
Excerpt: (§1) Wild-type Gβ1 and Gp1 mutants were made in the baculovirus vector PDW464 which encodes a biotinylation site at a lysine upstream of the amino terminus of Gβ1 (Goubaeva, et al. (2003) supra). Mutants were generated by overlap extension PCR using standard protocols. The wild-type and mutant Gβ1 constructs consisted of a 20 amino acid biotin acceptor peptide (BAP) sequence fused in-frame with the amino-terminus of rat Gβ1 subunit. When coexpressed with biotin holoenzyme synthetase (BirA) in Sf9 cells, the Gβ1 subunit becomes covalently biotinylated in vivo at the specific lysine acceptor residue in the BAP. Using this approach, 1-2 mg protein of purified protein can be obtained per liter of Sf9 insect cells. As 45 ng of protein is used in the phage ELISA assay, a single purification is sufficient for 10,000 to 30,000 binding assays.
(§2) Phage ELISA assays used to assess peptide binding to wild-type and mutant b-βγ were performed according to standard methods (Smrcka and Scott (2002) Methods Enzymol. 344:557-76). Briefly, 1 μg streptavidin was immobilized in the well of a […] overnight at 4° C. The wells were blocked with 100 μL of 2% bovine serum albumin (BSA) in Tris-buffered saline (TBS) for 1 hour at 4° C. followed by three washes of IX TBS/0.5% TWEEN®. Forty μL of 25 nM bGβ1γ2 in TBS/0.5% TWEEN® was added to each well and incubated at 4° C. for 1.5 hour. The wells were washed, followed by the addition of IxIO^6 to IxIO^10 phage particles and incubated at 4° C. for 3 hours. The wells were then washed six times with TBS/0.5% TWEEN® followed by addition of 40 μL of 1:5000 dilution of anti-M13 antibody (Pharmacia, Uppsala, Sweden) and incubated at room temperature for 1 hour. The wells were washed, followed by the addition of 40 μL of (2,2′-Azino-bis (3-ethylbenzthiazoline)-6-sulfonic acid (ABTS) and the colorimetric reaction was monitored at 405 nm. Nonspecific binding was subtracted for each reading.
(§3) The nine peptides were selected to represent the different consensus groups of peptides previously identified (See Scott et al. (2001) supra; Table 15) and to compare binding characteristics within and between consensus groups. […] As disclosed herein, the binding signal obtained in the ELISA assay was correlated to a loss in affinity by comparing the results to behavior of the peptide in a solution based assay. […] For the purposes of present disclosure, any substitution that decreased the binding to less than 20% of the wild-type binding was considered to be a critical binding contact for that peptide.

[3] = molecular target: T2, Gβ1γ2 (Gβ1 mutants) (UniProt P54311+P63212, Y145A); assay: as above; set-up: species or system rat; conditions: Gβ1 Tyr145Ala; mean ± SD
T2 construct: made in house; host or cells: Sf9 insect cells (baculovirus), partially purified via (His)6-Gαi1 on Ni-NTA
Excerpt: as §1, §2, §3

[4] = molecular target: T3, Gβ1γ2 (Gβ1 mutants) (UniProt P54311+P63212, L117A); assay: as above; set-up: species or system rat; conditions: Gβ1 Leu117Ala; mean ± SD
T3 construct: made in house; host or cells: Sf9 insect cells (baculovirus), partially purified via (His)6-Gαi1 on Ni-NTA
Excerpt: as §1, §2, §3

[5] = molecular target: T4, Gβ1γ2 (Gβ1 mutants) (UniProt P54311+P63212, W332A); assay: as above; set-up: species or system rat; conditions: Gβ1 Trp332Ala; mean ± SD
T4 construct: made in house; host or cells: Sf9 insect cells (baculovirus), partially purified via (His)6-Gαi1 on Ni-NTA
Excerpt: as §1, §2, §3

[6] = molecular target: T5, Gβ1γ2 (Gβ1 mutants) (UniProt P54311+P63212, D246S); assay: as above; set-up: species or system rat; conditions: Gβ1 Asp246Ser; mean ± SD
T5 construct: made in house; host or cells: Sf9 insect cells (baculovirus), partially purified via (His)6-Gαi1 on Ni-NTA
Excerpt: as §1, §2, §3

[7] = molecular target: T6, Gβ1γ2 (Gβ1 mutants) (UniProt P54311+P63212, W99A); assay: as above; set-up: species or system rat; conditions: Gβ1 Trp99Ala; mean ± SD
T6 construct: made in house; host or cells: Sf9 insect cells (baculovirus), partially purified via (His)6-Gαi1 on Ni-NTA
Excerpt: as §1, §2, §3

[8] = molecular target: T7, Gβ1γ2 (Gβ1 mutants) (UniProt P54311+P63212, K57A); assay: as above; set-up: species or system rat; conditions: Gβ1 Lys57Ala; mean ± SD
T7 construct: made in house; host or cells: Sf9 insect cells (baculovirus), partially purified via (His)6-Gαi1 on Ni-NTA
Excerpt: as §1, §2, §3

[9] = molecular target: T8, Gβ1γ2 (Gβ1 mutants) (UniProt P54311+P63212, R314A); assay: as above; set-up: species or system rat; conditions: Gβ1 Arg314Ala; mean ± SD
T8 construct: made in house; host or cells: Sf9 insect cells (baculovirus), partially purified via (His)6-Gαi1 on Ni-NTA
Excerpt: as §1, §2, §3

[10] = molecular target: T9, Gβ1γ2 (Gβ1 mutants) (UniProt P54311+P63212, M101A); assay: as above; set-up: species or system rat; conditions: Gβ1 Met101Ala; mean ± SD
T9 construct: made in house; host or cells: Sf9 insect cells (baculovirus), partially purified via (His)6-Gαi1 on Ni-NTA
Excerpt: as §1, §2, §3

[11] = molecular target: T10, Gβ1γ2 (Gβ1 mutants) (UniProt P54311+P63212, N230A); assay: as above; set-up: species or system rat; conditions: Gβ1 Asn230Ala; mean ± SD
T10 construct: made in house; host or cells: Sf9 insect cells (baculovirus), partially purified via (His)6-Gαi1 on Ni-NTA
Excerpt: as §1, §2, §3

[12] = molecular target: T11, Gβ1γ2 (Gβ1 mutants) (UniProt P54311+P63212, Y59A); assay: as above; set-up: species or system rat; conditions: Gβ1 Tyr59Ala; mean ± SD
T11 construct: made in house; host or cells: Sf9 insect cells (baculovirus), partially purified via (His)6-Gαi1 on Ni-NTA
Excerpt: as §1, §2, §3

[13] = molecular target: T12, Gβ1γ2 (Gβ1 mutants) (UniProt P54311+P63212, H311A); assay: as above; set-up: species or system rat; conditions: Gβ1 His311Ala; mean ± SD
T12 construct: made in house; host or cells: Sf9 insect cells (baculovirus), partially purified via (His)6-Gαi1 on Ni-NTA
Excerpt: as §1, §2, §3

[14] = molecular target: T13, Gβ1γ2 (Gβ1 mutants) (UniProt P54311+P63212, M188A); assay: as above; set-up: species or system rat; conditions: Gβ1 Met188Ala; mean ± SD
T13 construct: made in house; host or cells: Sf9 insect cells (baculovirus), partially purified via (His)6-Gαi1 on Ni-NTA
Excerpt: as §1, §2, §3

[15] = Table 18, compounds identified in Elisa screen, read-out: IC50

binding to the G protein β subunit [1]: not to bind
Compound: Cc1c2ccc(=O)cc-2oc2cc(O)ccc12 [6-hydroxy-9-methyl-3H-xanthen-3-one]

IC50 ([1]; kind of constant not stated, read-out: binding to the G protein β subunit): 0.2 µM
Compound: O=C(O)/C=C/c1c2ccc(=O)c(O)c-2oc2c(O)c(O)ccc12 [(E)-3-(4,5,6-trihydroxy-3-oxo-3H-xanthen-9-yl)acrylic acid]

Compound: O=C(O)/C=C/c1c2ccc(=O)cc-2oc2cc(O)ccc12 [(E)-3-(6-hydroxy-3-oxo-3H-xanthe-9-yl)acrylic acid]
binding to the G protein β subunit [1]: Neither of these compounds showed any binding

IC50 ([1]; Table 8, read-out: IC50): 43 µM
IC50 [1, 15]: 56 µM
Compound: Nc1c(S(=O)(=O)O)cc(Nc2cccc(S(N)(=O)=O)c2)c2c1C(=O)c1ccccc1C2=O [Compound M117]

IC50 ([1]; Table 8, read-out: IC50): 68 µM
IC50 [1, 15]: 18 µM
Compound: Nc1ccc(-c2ccc(Nc3cc(S(=O)(=O)O)c(N)c4c3C(=O)c3ccccc3C4=O)cc2)c(S(=O)(=O)O)c1 [Compound M125]

IC50 ([1]; Table 2, read-out: Elisa IC50): 56 µM
Compound: Nc1c(S(=O)(=O)O)cc(Nc2cccc(S(N)(=O)=O)c2)c2c1C(=O)c1ccccc1C2=O [drawing 50]

IC50 ([1]; Table 2, read-out: Elisa IC50): 12 µM
Compound: Nc1ccc(Nc2cc(S(=O)(=O)O)c(N)c3c2C(=O)c2ccccc2C3=O)cc1 [drawing 51]

IC50 ([1]; Table 2, read-out: Elisa IC50): 19 µM
Compound: Nc1cccc(Nc2cc(S(=O)(=O)O)c(N)c3c2C(=O)c2ccccc2C3=O)c1 [drawing 52]

IC50 ([1]; Table 2, read-out: Elisa IC50): 18 µM
Compound: Nc1ccc(-c2ccc(Nc3cc(S(=O)(=O)O)c(N)c4c3C(=O)c3ccccc3C4=O)cc2)c(S(=O)(=O)O)c1 [drawing 54]

Compound: O=C(O)C1CCCCC1c1c2ccc(=O)c(O)c-2oc2c(O)c(O)ccc12 (stereo not drawn) [drawing 103]
IC50 ([1]; SIGK IC50, Table 6): 0.2 µM

IC50 ([1]; Table 6): 0.15 µM
Compound: O=C(O)c1cccc2cccc(-c3c4ccc(=O)c(O)c-4oc4c(O)c(O)ccc34)c12 [drawing 108]

% of Wild-Type Signal [2]: 2.4 ± 3.5%
% of Wild-Type Signal [3]: 0.1 ± 6.5%
% of Wild-Type Signal [4]: 2.1 ± 5.5%
% of Wild-Type Signal [5]: −1.5 ± 3.6%
% of Wild-Type Signal [6]: 0.6 ± 2.5%
% of Wild-Type Signal [7]: 32.6 ± 26.3%
% of Wild-Type Signal [8]: −4.5 ± 6.2%
% of Wild-Type Signal [9]: 2.4 ± 3.9%
% of Wild-Type Signal [10]: 6.0 ± 5.1%
% of Wild-Type Signal [11]: 27.6 ± 19.1%
% of Wild-Type Signal [12]: −2.0 ± 9.5%
% of Wild-Type Signal [13]: 23.6 ± 46.0%
% of Wild-Type Signal [14]: 8.5 ± 5.2%
Compound: LCSKAYLLLGQTC [Compound 2F]

% of Wild-Type Signal [2]: 124.9 ± 29.1%
% of Wild-Type Signal [3]: 17.5 ± 7.8%
% of Wild-Type Signal [4]: 24.7 ± 12.5%
% of Wild-Type Signal [5]: 0.7 ± 2.4%
% of Wild-Type Signal [6]: 60.8 ± 14.4%
% of Wild-Type Signal [7]: −0.8 ± 2.7%
% of Wild-Type Signal [8]: 14.2 ± 9.8%
% of Wild-Type Signal [9]: 20.8 ± 11.1%
% of Wild-Type Signal [10]: 23.6 ± 8.5%
% of Wild-Type Signal [11]: 74.8 ± 14.8%
% of Wild-Type Signal [12]: 4.0 ± 6.2%
% of Wild-Type Signal [13]: 51.6 ± 13.2%
% of Wild-Type Signal [14]: 122.6 ± 26.2%
Compound: SCARFFGTPGCT [Compound C8]
